# Experimental data: patent US7354734B2, “Fungal proteins and nucleic acids encoding same” (priority 2003, dated 2008)
# Values joined by “and” are separate entries in the source; they are usually repeats but may differ in a detail not shown here. Identical values can stand only once. “Also recorded” adds a separate entry of the source. Like-named read-outs stand apart in the source and are kept apart here.
# T1: pkLAP (microsomal LAP from porcine kidney) (Sus scrofa, UniProt P15145)
# T1 construct: purchased Sigma; host or cells: porcine kidney
# T1 sequence (P15145 1-963): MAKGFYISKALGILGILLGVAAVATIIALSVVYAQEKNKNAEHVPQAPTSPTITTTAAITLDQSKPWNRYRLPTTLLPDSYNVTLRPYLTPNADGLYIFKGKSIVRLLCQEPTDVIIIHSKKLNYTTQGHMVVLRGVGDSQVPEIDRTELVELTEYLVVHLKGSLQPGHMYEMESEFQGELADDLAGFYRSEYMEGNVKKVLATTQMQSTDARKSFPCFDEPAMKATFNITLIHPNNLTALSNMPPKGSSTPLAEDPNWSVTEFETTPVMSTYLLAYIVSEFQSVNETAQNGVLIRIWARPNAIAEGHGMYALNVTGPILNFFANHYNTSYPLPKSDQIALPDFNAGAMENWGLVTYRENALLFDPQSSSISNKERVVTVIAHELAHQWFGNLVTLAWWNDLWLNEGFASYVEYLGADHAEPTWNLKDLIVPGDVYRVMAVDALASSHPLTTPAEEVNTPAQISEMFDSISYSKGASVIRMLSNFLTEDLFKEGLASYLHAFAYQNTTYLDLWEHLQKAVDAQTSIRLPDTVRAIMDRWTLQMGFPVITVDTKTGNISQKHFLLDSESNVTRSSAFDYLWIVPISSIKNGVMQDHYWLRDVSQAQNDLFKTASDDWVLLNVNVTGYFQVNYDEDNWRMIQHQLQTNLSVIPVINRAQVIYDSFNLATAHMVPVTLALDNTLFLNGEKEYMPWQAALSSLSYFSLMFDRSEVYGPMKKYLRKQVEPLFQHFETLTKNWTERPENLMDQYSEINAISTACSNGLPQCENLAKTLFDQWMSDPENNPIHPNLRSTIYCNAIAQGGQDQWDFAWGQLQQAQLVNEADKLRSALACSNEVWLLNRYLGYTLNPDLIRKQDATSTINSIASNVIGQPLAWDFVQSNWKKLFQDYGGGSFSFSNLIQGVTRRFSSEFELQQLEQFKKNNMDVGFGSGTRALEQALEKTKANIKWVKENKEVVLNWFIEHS
# Experiments:
# ruLAP1 = ruLAP1 (Trichophyton rubrum, UniProt Q5QHG5); type: biochemical
# fuLAP2 = type: biochemical, Aspergillus fumigatus
# [1] = target: T1, pkLAP (microsomal LAP from porcine kidney); assay: Effect of inhibitors and metallic cations on LAP activity (Leu-AMC); type: biochemical
# fuLAP1 = fuLAP1 (Aspergillus fumigatus, UniProt Q5VJG6); assay: biochemical; type: biochemical
# ruLAP2 = ruLAP2 (Trichophyton rubrum, UniProt Q5QHG6); type: biochemical; settings: for ruLAP2 activity as percentage of control reaction without any cation: Leu-MCA substrate, 15 min pre-incubation
# [2] = type: biochemical
# [3] = type: biochemical; settings: substrate Lys(Abz)Pro-PropNA 5 mM, 37° C., 60 min
# [4] = tested on: gliadin 33mer (fragment 57-89 of gliadin MM1); assay: Digestion of gliadin 33mer (RP-HPLC, ESI-MS); type: biochemical, wheat; settings: 37° C.
# [5] = Leu-AMC, cations 0.5 mM and 1 mM
# [6] = cation salt 0.5 mM, Leu-MCA substrate, 15 min pre-incubation
# [7] = cation salt 1 mM, Leu-MCA substrate, 15 min pre-incubation
# Chain of ruLAP1 (Q5QHG5 21-373): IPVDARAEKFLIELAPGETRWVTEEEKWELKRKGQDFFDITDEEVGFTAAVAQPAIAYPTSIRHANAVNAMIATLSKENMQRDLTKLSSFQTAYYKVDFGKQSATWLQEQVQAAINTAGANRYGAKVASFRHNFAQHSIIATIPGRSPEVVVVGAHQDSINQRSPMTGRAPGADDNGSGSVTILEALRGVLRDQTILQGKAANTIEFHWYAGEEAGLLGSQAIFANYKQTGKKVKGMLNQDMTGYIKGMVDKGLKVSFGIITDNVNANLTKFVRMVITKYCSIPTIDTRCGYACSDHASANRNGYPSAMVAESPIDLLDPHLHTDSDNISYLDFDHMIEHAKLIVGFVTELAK
# Chain of ruLAP2 (Q5QHG6 20-495): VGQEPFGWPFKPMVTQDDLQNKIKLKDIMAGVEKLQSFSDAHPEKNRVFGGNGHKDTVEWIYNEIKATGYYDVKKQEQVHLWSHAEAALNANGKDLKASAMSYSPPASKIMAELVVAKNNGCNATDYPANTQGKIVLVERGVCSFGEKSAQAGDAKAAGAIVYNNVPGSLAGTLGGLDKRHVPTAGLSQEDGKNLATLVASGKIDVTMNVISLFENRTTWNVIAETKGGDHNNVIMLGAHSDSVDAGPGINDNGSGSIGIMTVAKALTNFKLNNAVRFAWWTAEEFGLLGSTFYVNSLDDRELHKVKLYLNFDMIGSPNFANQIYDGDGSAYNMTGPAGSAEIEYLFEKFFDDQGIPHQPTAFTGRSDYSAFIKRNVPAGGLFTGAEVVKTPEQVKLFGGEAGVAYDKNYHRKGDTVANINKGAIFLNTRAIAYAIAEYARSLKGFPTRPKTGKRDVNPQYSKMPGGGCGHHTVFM
molecule,measurement,setting,value
"[Cl][Mn][Cl] [Mn^++, MnCl2]",ruLAP1 activity as percentage of control reaction without any cation,ruLAP1,120.7% and 105.2%
same,effect of divalent cation on fuLAP2 activity,fuLAP2; [5],activated
same,fuLAP2 activity as percentage of control reaction without any cation,fuLAP2; [6],84.3%
same,fuLAP2 activity as percentage of control reaction without any cation,fuLAP2; [7],140.2%
same,pkLAP activity as percentage of control reaction without any cation,[1]; [6],157.6%
same,pkLAP activity as percentage of control reaction without any cation,[1]; [7],165.8%
same,effect of divalent cation on fuLAP1 activity,fuLAP1; [5],inhibited
same,fuLAP1 activity as percentage of control reaction without any cation,fuLAP1; [6],25.9%
same,fuLAP1 activity as percentage of control reaction without any cation,fuLAP1; [7],28.4%
same,ruLAP2 activity as percentage of control reaction without any cation,ruLAP2; cation salt 0.5 mM,77.5%
same,ruLAP2 activity as percentage of control reaction without any cation,ruLAP2; cation salt 1 mM,86.8%
"CC(=O)N[C@@H](CC(C)C)C(=O)N[C@@H](CC(C)C)C(=O)N[C@H](C=O)CCCNC(=N)N [Leupeptin, leupeptin]",effect of inhibitor on ruLAP1 activity,ruLAP1; Leu-AMC 5 mM,no clear inhibitory effects
same,effect of inhibitor on fuLAP2 activity,fuLAP2; Leu-AMC 5 mM,no clear inhibitory effects
same,fuLAP2 activity as percentage of control reaction without inhibitor,"fuLAP2; inhibitor 100 μM, Leu-MCA substrate, 15 min pre-incubation",61%
same,effect of inhibitor on pkLAP activity,[1]; Leu-AMC 5 mM,no clear inhibitory effects
same,remaining activity at 100 µM,"[1]; inhibitor 100 μM, Leu-MCA substrate, 15 min pre-incubation, read-out: pkLAP activity as percentage of control reaction without inhibitor",86%
same,effect of inhibitor on fuLAP1 activity,fuLAP1; Leu-AMC 5 mM,no clear inhibitory effects
same,remaining activity at 100 µM,"fuLAP1; inhibitor 100 μM, Leu-MCA substrate, 15 min pre-incubation, read-out: fuLAP1 activity as percentage of control reaction without inhibitor",149%
same,effect of inhibitor on ruLAP2 activity,ruLAP2; Leu-AMC 5 mM,no clear inhibitory effects
"fuLAP1: A. fumigatus leucine aminopeptidase, 388 amino acid residues (SEQ ID NO: 12) (protein, listed as Aspergillus fumigatus) MKVLTAIALSAIAFTGAVAAVITQEAFLNNPRIHHDQEKYLIELAPYRTRWVTEEEKWALKLDGVNFIDITEEHNTGFYPTLHSASYVKYPPKMQYAEEVAALNKNLSKENMKANLERFTSFHTRYYKSQTGIRSATWLFDQVQRVVSESGAAEYGATVERFSHPWGQFSIIARIPGRTNKTVVLGAHQDSINLFLPSILAAPGADDDGSGTVTILEALRGLLQSDAIAKGNASNTVEFHWYSAEEGGMLGSQAIFSNYKRNRREIKAMLQQDMTGYVQGALNAGVEEAIGIMVDYVDQGLTQFLKDVVTAYCSVGYLETKCGYACSDHTSASKYGYPAAMATEAEMENTNKKIHTTDDKIKYLSFDHMLEHAKLSLGFAFELAFAPF",hydrolytic activity toward Arg-AMC,[2]; compared to Leu-AMC,appreciated
same,hydrolytic activity toward Phe-AMC,[2]; compared to Leu-AMC,appreciated
same,hydrolytic activity toward Val-AMC,[2]; compared to Leu-AMC,appreciated
same,hydrolytic activity toward Ala-AMC in comparison to Leu-MCA used as a standard,"[2]; substrate Ala-AMC 5 mM, 37° C., 60 min",4.7%
same,hydrolytic activity toward Arg-AMC in comparison to Leu-MCA used as a standard,"[2]; substrate Arg-AMC 5 mM, 37° C., 60 min",53.9%
same,hydrolytic activity toward Asn-AMC in comparison to Leu-MCA used as a standard,"[2]; substrate Asn-AMC 5 mM, 37° C., 60 min",29.4%
same,hydrolytic activity toward Asp-AMC in comparison to Leu-MCA used as a standard,"[2]; substrate Asp-AMC 5 mM, 37° C., 60 min",0.8%
same,hydrolytic activity toward Cys-AMC in comparison to Leu-MCA used as a standard,"[2]; substrate Cys-AMC 5 mM, 37° C., 60 min",5.0%
same,hydrolytic activity toward Gln-AMC in comparison to Leu-MCA used as a standard,"[2]; substrate Gln-AMC 5 mM, 37° C., 60 min",44.9%
same,hydrolytic activity toward Glu-AMC in comparison to Leu-MCA used as a standard,"[2]; substrate Glu-AMC 5 mM, 37° C., 60 min",0.0%
same,hydrolytic activity toward Gly-AMC in comparison to Leu-MCA used as a standard,"[2]; substrate Gly-AMC 5 mM, 37° C., 60 min",0.8%
same,hydrolytic activity toward Gly-Pro-AMC in comparison to Leu-MCA used as a standard,"[2]; substrate Gly-Pro-AMC 5 mM, 37° C., 60 min",5.4%
same,hydrolytic activity toward His-AMC in comparison to Leu-MCA used as a standard,"[2]; substrate His-AMC 5 mM, 37° C., 60 min",0.8%
same,hydrolytic activity toward Hyp-AMC in comparison to Leu-MCA used as a standard,"[2]; substrate Hyp-AMC 5 mM, 37° C., 60 min",3.9%
same,hydrolytic activity toward Ile-AMC in comparison to Leu-MCA used as a standard,"[2]; substrate Ile-AMC 5 mM, 37° C., 60 min",13.2%
same,hydrolysis of Leu-AMC,[2]; substrate Leu-AMC,efficiently hydrolyzed; also recorded: common preference
same,hydrolytic activity toward Leu-AMC in comparison to Leu-MCA used as a standard,"[2]; substrate Leu-AMC 5 mM, 37° C., 60 min",100.0%
same,hydrolytic activity toward Lys-AMC in comparison to Leu-MCA used as a standard,"[2]; substrate Lys-AMC 5 mM, 37° C., 60 min",7.7%
same,hydrolytic activity toward Met-AMC in comparison to Leu-MCA used as a standard,"[2]; substrate Met-AMC 5 mM, 37° C., 60 min",116.9%
same,hydrolytic activity toward Phe-AMC in comparison to Leu-MCA used as a standard,"[2]; substrate Phe-AMC 5 mM, 37° C., 60 min",163.7%
same,hydrolytic activity toward Pro-AMC in comparison to Leu-MCA used as a standard,"[2]; substrate Pro-AMC 5 mM, 37° C., 60 min",12.0%
same,hydrolytic activity toward Pyr-AMC in comparison to Leu-MCA used as a standard,"[2]; substrate Pyr-AMC 5 mM, 37° C., 60 min",0.0%
same,hydrolytic activity toward Ser-AMC in comparison to Leu-MCA used as a standard,"[2]; substrate Ser-AMC 5 mM, 37° C., 60 min",10.3%
same,hydrolytic activity toward Thr-AMC in comparison to Leu-MCA used as a standard,"[2]; substrate Thr-AMC 5 mM, 37° C., 60 min",5.1%
same,hydrolytic activity toward Val-AMC in comparison to Leu-MCA used as a standard,"[2]; substrate Val-AMC 5 mM, 37° C., 60 min",27.6%
same,hydrolytic activity toward Lys(Abz)Pro-PropNA in comparison to Leu-MCA used as a standard,[3],0.0%
"Cytosolic porcine kidney aminopeptidase: cytosolic leucine aminopeptidase from porcine kidney, Sigma (protein, UniProt P28839 1-519, looked up) Cytosol aminopeptidase: MFLLPLPAAARVAVRQLSVRRFWGPGPDAANMTKGLVLGIYSKEKEDDAPQFTSAGENFDKLVSGKLREILNISGPPLKAGKTRTFYGLHEDFSSVVVVGLGKKGAGVDDQENWHEGKENIRAAVAAGCRQIQDLEIPSVEVDPCGDAQAAAEGAVLGLYEYDELKQKKKVVVSAKLHGSGDQEAWQRGVLFASGQNLARHLMETPANEMTPTRFAEVIEKNLKSASSKTDVHIRPKSWIEEQEMGSFLSVAKGSEEPPVFLEIHYKGSPDASDPPLVFVGKGITFDSGGISIKASANMDLMRADMGGAATICSTIVSAAKLDLPINLVGLAPLCENMPSGKANKPGDVVRAKNGKTIQVDNTDAEGRLILADALCYAHTFNPKVIINAATLTGAMDIALGSGATGVFTNSSWLWNKLFEASIETGDRVWRMPLFEHYTKQIVDCQLADVNNIGKYRSAGACTAAAFLKEFVTHPKWAHLDIAGVMTNKDEVPYLRKGMAGRPTRTLIEFLLRFSQDSA","digestion of gliadin 33mer, enzyme alone",[4],totally inactive
